According to the supplement of paper PMC11811203:

B1: THAP1; numbered along this chain (parent)
chain: MVQSCSAYGCKNRYDKDKPVSFHKFPLTRPSLCKEWEAAVRRKNFKPTKYSSICSEHFTPDCFKRECNNKLLKENAVPTIFLCTEPHDKKEDLLEPQEQLPPPPLPPPVSQVDAAIGLLMPPLQTPVNLSVFCDHNYTVEDTMHQRKRIHQLEQQVEKLRKKLKTAQQRCRRQERQLEKLKEVVHFQKEKDDVSERGYVILPNDYFEIVEVPA

Variants of: B1
Experiment: THAP1 transcriptional activity (GFP+/GFP- enrichment relative to wild-type constructs) (ratio to WT); higher = more THAP1 activity (PSMB5 reporter activation)
Conditions: with PSMB5 promoter-GFP reporter
How it was run: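 A site-saturation library of human THAP1 (residues 2–213, each changed to all 20 amino acids) was transduced by lentivirus at MOI ~0.3, in duplicate, into THAP1-knockout HEK-293T cells carrying mClover3 knocked in at endogenous PSMB5. After five days, BFP+ cells were sorted into GFP-dim and GFP-bright bins, and variants were counted by Illumina sequencing of genomic DNA amplicons. Activity is the replicate-mean bright/dim read fold change divided by the mean of wild-type synonymous constructs.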

Row | Variant | THAP1 transcriptional activity
1 | MVQSCSAYGCKNRYDKDKPVSFHKFPLTRPSLCKEWEAAVRRKNFKPTKYSSICSEHFTPDCFKRECNNKLLKENAVPTIFLCTEPHDKKEDLLEPQEQLPPPPLPPPVSQVDAAIGLLMPPLWTPVNLSVFCDHNYTVEDTMHQRKRIHQLEQQVEKLRKKLKTAQQRCRRQERQLEKLKEVVHFQKEKDDVSERGYVILPNDYFEIVEVPA [Q124W] | 0.257
2 | MVQSCSAYGCKNRYDKDKPVSFHKFPLTRPSLCKEWEAAVRRKNFKPTKYSSICSEHFTPDCFKRECNNKLLKENAVPTIFLCTEPHDKKEDLLEPQEQLPPPPLPPPVSQVDAAIGLLMPPLQTPVNLSVFCDHNYTVEDTMHQRKRIHQLEAQVEKLRKKLKTAQQRCRRQERQLEKLKEVVHFQKEKDDVSERGYVILPNDYFEIVEVPA [Q154A] | 1.06
3 | MVQSCSAYGCKNRYDKDKPVSFHKFPLTRPSHCKEWEAAVRRKNFKPTKYSSICSEHFTPDCFKRECNNKLLKENAVPTIFLCTEPHDKKEDLLEPQEQLPPPPLPPPVSQVDAAIGLLMPPLQTPVNLSVFCDHNYTVEDTMHQRKRIHQLEQQVEKLRKKLKTAQQRCRRQERQLEKLKEVVHFQKEKDDVSERGYVILPNDYFEIVEVPA [L32H] | 0.17
4 | MVQSCSAYGCKNRYDKDKPVSFHKFPLTRPSLCKEWEAAVRRKNFKGTKYSSICSEHFTPDCFKRECNNKLLKENAVPTIFLCTEPHDKKEDLLEPQEQLPPPPLPPPVSQVDAAIGLLMPPLQTPVNLSVFCDHNYTVEDTMHQRKRIHQLEQQVEKLRKKLKTAQQRCRRQERQLEKLKEVVHFQKEKDDVSERGYVILPNDYFEIVEVPA [P47G] | 0.111
5 | MVQSCSAYGCKNRYDKDKPVSFHKFPLTRPSLCKEWEAAVRRKNFKPTKYSSICSEHFTPDCFKRECNNKLLKENAVPTIFLCTEPHDKKEDLLEPQEQLPPPPLPPPVSQVDAAIGLLMPPLQTPVNLSVFCDHNYTVEDTMHQRKRIHQLEQQVEKLRKKLKTAQQRCRRQERQLEKLKEVLHFQKEKDDVSERGYVILPNDYFEIVEVPA [V184L] | 0.923
6 | MVQSCSAYGCKNRYDKDKPVSFHKFPLTRPSLCKEWEAAVRRKNFKPTKYSSICSEHFTPDCFKRECHNKLLKENAVPTIFLCTEPHDKKEDLLEPQEQLPPPPLPPPVSQVDAAIGLLMPPLQTPVNLSVFCDHNYTVEDTMHQRKRIHQLEQQVEKLRKKLKTAQQRCRRQERQLEKLKEVVHFQKEKDDVSERGYVILPNDYFEIVEVPA [N68H] | 0.2
7 | MVQSCSAYGCKNRYDKDKPVSFHKFPLTRPSLCKEWEAAVRRKNFKPTKYSSICSEHFTPDCFKRECNNKLLKENAVPTIFLCTEPHDKKEDLLEPQEQLPPPPLPPPVSQVDAAIGLLMPPLQTPVNLSVFCDHNYTVEDTMHQRKRIHQLEQQVEKLRKKLKTAQQRCRRQERQLEKLKEVVHFQKEKDDVSERGYVITPNDYFEIVEVPA [L201T] | 0.898
8 | MVQSCSAYGCKNRYDKDKPVSFHKFPLTRPSLCKEWEAAVRRKNFKPTKYSSICSELFTPDCFKRECNNKLLKENAVPTIFLCTEPHDKKEDLLEPQEQLPPPPLPPPVSQVDAAIGLLMPPLQTPVNLSVFCDHNYTVEDTMHQRKRIHQLEQQVEKLRKKLKTAQQRCRRQERQLEKLKEVVHFQKEKDDVSERGYVILPNDYFEIVEVPA [H57L] | 0.107
9 | MVQSCSAYGCKNRYDKDKPVSFHKFPLTRPSLCKEWEAAVRRKNFKPTKYSSICSEHHTPDCFKRECNNKLLKENAVPTIFLCTEPHDKKEDLLEPQEQLPPPPLPPPVSQVDAAIGLLMPPLQTPVNLSVFCDHNYTVEDTMHQRKRIHQLEQQVEKLRKKLKTAQQRCRRQERQLEKLKEVVHFQKEKDDVSERGYVILPNDYFEIVEVPA [F58H] | 0.131
10 | MVQSCSAYGCKNRYDKDKPVSFHKFPLTRPSLCKEWEAAVRRKNFKPTKYSSICSEHFTPDCFKRECNNKLLKENAVPTIFLCTEPHDKKEDLLEPQEQLPPPPLPPPVSQVDAAIGLLMPPLQTPVNLSVFCDHNYTVIDTMHQRKRIHQLEQQVEKLRKKLKTAQQRCRRQERQLEKLKEVVHFQKEKDDVSERGYVILPNDYFEIVEVPA [E140I] | 1.08
11 | MVQSCSAYGCKNRYDKDKPVSFHKFPLTRPSLCKEWEAAVRRKNFKPTKYSSICSEHFTPDCFKRECNNKLLKENAVPTIFLCTEPHDKKEDLLEPQEQLPPPPLPPPVSQVDAAIGLLMPPLQTPVNLSVFCDHNYTVEDTMHQRKRIHQLEQQVEKLRKKLKTAQQRCRRQERQLENLKEVVHFQKEKDDVSERGYVILPNDYFEIVEVPA [K179N] | 0.51
12 | MVQSCSAYGCKNRYDKDKPVSFHKFPLTRPSLCKEWEAAVRRKNFKPTKYSSICSEHFTPDCFKRECNNKLLKENAVPTIFLCTEPHDKKEDLLEPQEQLPPPPLPPPVSQVDAAIGLLMPPLQTPVNLSVFCDHNYTVEDTMHQRKRIHQLEQQVEKLRKKLHTAQQRCRRQERQLEKLKEVVHFQKEKDDVSERGYVILPNDYFEIVEVPA [K164H] | 0.316
13 | MVQSCSAYGCKNRYDKDKPVSFHKFPLTRPSLCKEWEAAVRRKNFKPTKYSSICSEHFTPDCFKRECNNKLLKENAVPTIFLCTEPHDKKEDLLEPQEQLPPPPLPPPVSQVDAAIGLLMPPLQTPVNLSVFCDHNYTVEDTMHQRKRIHQLEQQVEKLRKKLKTAQQRCRRQERQLEKLKEVVHFQKEKDDVSERGYVPLPNDYFEIVEVPA [I200P] | 0.688
14 | MVQSCSAYGCKNRYDKDKPVSFHKFPLTRPSLCKEWEAAVRRKNFKPTKYSSICSEHFTPDCFKRECNNKLLKENAVPTIFLCTEPHDKKEDLLEPQEQLPPPPLPPPVSQVDAAIGLLMPPLQTPVNLSVFCDHNYTCEDTMHQRKRIHQLEQQVEKLRKKLKTAQQRCRRQERQLEKLKEVVHFQKEKDDVSERGYVILPNDYFEIVEVPA [V139C] | 0.724
15 | MVQSCSAYGCKNRYDKDKPVSFHKFPLTRPSLCKEWEAAVRRKNFKPTKYSSICSEHFTPDCFKRECNNKLLKENAVPTIFLCTEPHDKKEDLLEPQEQLPPPPLPPPVSQVDAAIGLLMPPLQTPVNLSVFCDHNYTGEDTMHQRKRIHQLEQQVEKLRKKLKTAQQRCRRQERQLEKLKEVVHFQKEKDDVSERGYVILPNDYFEIVEVPA [V139G] | 0.378
16 | MVQSCSNYGCKNRYDKDKPVSFHKFPLTRPSLCKEWEAAVRRKNFKPTKYSSICSEHFTPDCFKRECNNKLLKENAVPTIFLCTEPHDKKEDLLEPQEQLPPPPLPPPVSQVDAAIGLLMPPLQTPVNLSVFCDHNYTVEDTMHQRKRIHQLEQQVEKLRKKLKTAQQRCRRQERQLEKLKEVVHFQKEKDDVSERGYVILPNDYFEIVEVPA [A7N] | 0.133
17 | MVQSCSAYGCKNRYDKDKPVSFHKFPPTRPSLCKEWEAAVRRKNFKPTKYSSICSEHFTPDCFKRECNNKLLKENAVPTIFLCTEPHDKKEDLLEPQEQLPPPPLPPPVSQVDAAIGLLMPPLQTPVNLSVFCDHNYTVEDTMHQRKRIHQLEQQVEKLRKKLKTAQQRCRRQERQLEKLKEVVHFQKEKDDVSERGYVILPNDYFEIVEVPA [L27P] | 0.103
18 | MVQSCSAYGCKNRYDKDKPVSFHKFPLTRPSLCKEWEAAVRRKNFKPTKYSSICSEHFTPDCFKRECNNKLLKENAVPTIFLCTEPHDKKEDLLEPQEQLPPPPLPPPVSQVDAAIGLLMPPLQTPLNLSVFCDHNYTVEDTMHQRKRIHQLEQQVEKLRKKLKTAQQRCRRQERQLEKLKEVVHFQKEKDDVSERGYVILPNDYFEIVEVPA [V127L] | 0.775
19 | MVQSCSAYGCKNRYDKDKPVSFHKFPLTRPSLCKEWEAAVRRKNFKPTKYSSICSEHFTPDCFKRECNNKLLKENAVPTIFLCTEPHDKKEDLLEPQEQLPPPPLPPPVSQVDAAIGLLMPPLQTPPNLSVFCDHNYTVEDTMHQRKRIHQLEQQVEKLRKKLKTAQQRCRRQERQLEKLKEVVHFQKEKDDVSERGYVILPNDYFEIVEVPA [V127P] | 0.879
20 | MVQSCSAYGCKNRYDKDKPVSFHKFPLTRPSLCKEWEAAVRRKNFKPTKYSSICSEHFTPDCFKRECNNKLLKENAVPNIFLCTEPHDKKEDLLEPQEQLPPPPLPPPVSQVDAAIGLLMPPLQTPVNLSVFCDHNYTVEDTMHQRKRIHQLEQQVEKLRKKLKTAQQRCRRQERQLEKLKEVVHFQKEKDDVSERGYVILPNDYFEIVEVPA [T79N] | 0.622
21 | MVQSCSAYGCKNRYDKDKPVSFHKFPLTTPSLCKEWEAAVRRKNFKPTKYSSICSEHFTPDCFKRECNNKLLKENAVPTIFLCTEPHDKKEDLLEPQEQLPPPPLPPPVSQVDAAIGLLMPPLQTPVNLSVFCDHNYTVEDTMHQRKRIHQLEQQVEKLRKKLKTAQQRCRRQERQLEKLKEVVHFQKEKDDVSERGYVILPNDYFEIVEVPA [R29T] | 0.12
22 | MVQSCSAYGCKNRYDKDKPVSFHKFPLTRPSLCKEWEAAVRRKNFKPTKYSSICSEHFTPDCFKRECNNKLLKENAVPTIFLCTEPHSKKEDLLEPQEQLPPPPLPPPVSQVDAAIGLLMPPLQTPVNLSVFCDHNYTVEDTMHQRKRIHQLEQQVEKLRKKLKTAQQRCRRQERQLEKLKEVVHFQKEKDDVSERGYVILPNDYFEIVEVPA [D88S] | 1.92
23 | MVQSCSAYGCKNRYDKDKPVSFHKFPLTRPSLCKEWEAAVRRKNFKPTKYSSICSEHFTPDCFKRECNNKLLKENAVPTIFLCTEPHDKKEDLLEPQEQLPPPPLPPPVSQVDAAIGLLMPPLQTPVNLSVFCDHNYTVEDTMHQRKRIHQLEQQVEKLRKKLKTAQQRCRRQERQAEKLKEVVHFQKEKDDVSERGYVILPNDYFEIVEVPA [L177A] | 0.268
24 | MVQSCSAYGCKNRYDKDKPVSFHKFPLTRPSLCKEWEAAVRRKNFKPTKYSSICSEHFTPDCFKRECNNKLLKENAVPTIFLCTEPHDKKEDLLEPQEQLPPPPLPPPVSQVDAAIGLLMPPLQTPVNLSVFCDHNYTVEDTMHQRKRIHQLEQQVEKLRKKLKTAQQRCRRQERQLEKLKEVVHFQKEKYDVSERGYVILPNDYFEIVEVPA [D191Y] | 0.661
25 | MVQSCSAYGCKNRYDKDKPVSFHKFPLTRPSLCKEWEAAVRRKNFKPTKYSSICSEHFTPDCFKRECNNKLLKENAVPTIFLCTEPHDKKEDLLEPQEQLPPPPLPPPVSQVDAAIGLLMPPLQTPVNLSVFCDHNGTVEDTMHQRKRIHQLEQQVEKLRKKLKTAQQRCRRQERQLEKLKEVVHFQKEKDDVSERGYVILPNDYFEIVEVPA [Y137G] | 0.161
26 | MVQSCSAYGCKNRYDKDKPVSFHKFPLTRPSLCKEWEAAVRRKNFKPTKYSSICSEHFTPDCFKFECNNKLLKENAVPTIFLCTEPHDKKEDLLEPQEQLPPPPLPPPVSQVDAAIGLLMPPLQTPVNLSVFCDHNYTVEDTMHQRKRIHQLEQQVEKLRKKLKTAQQRCRRQERQLEKLKEVVHFQKEKDDVSERGYVILPNDYFEIVEVPA [R65F] | 0.208
27 | MVQSCSAYGCKNRYDKDKPVSFHKFPLTRPSLCKEWEAAVRRKNFKPTKYSSICSEHFTPDCFKRECNNKLLKEGAVPTIFLCTEPHDKKEDLLEPQEQLPPPPLPPPVSQVDAAIGLLMPPLQTPVNLSVFCDHNYTVEDTMHQRKRIHQLEQQVEKLRKKLKTAQQRCRRQERQLEKLKEVVHFQKEKDDVSERGYVILPNDYFEIVEVPA [N75G] | 1.42
28 | MVQSCSAYGCKNRYDKDKPVSFHKFPLTRPSLCKEWEAAVRRKNFKPTKYSSICSEHFTPDCFKRECNNKLLKENAVPTIFLCTEPHDKKEDLLEPQEQLPPPPLPPPVSQVDACIGLLMPPLQTPVNLSVFCDHNYTVEDTMHQRKRIHQLEQQVEKLRKKLKTAQQRCRRQERQLEKLKEVVHFQKEKDDVSERGYVILPNDYFEIVEVPA [A115C] | 0.428
